Assay results as given in PMC11214414.
Where two headings read alike, the source gives them in different places.

How the values were obtained:
Assay in all cases: EMSA
HsASCC1 WT [1] = molecular target: T1, HsASCC1 WT (Homo sapiens, UniProt Q8N9N2-2)
HsASCC1 GDDG mutant = HsASCC1 GDDG mutant (Homo sapiens, UniProt Q8N9N2-2 1-357, K76D;R77D)
HsASCC1 WT [2] = molecular target: T1, HsASCC1 WT; remark: listed apart in the source

UUUUCGCGUUUU (ssRNA) [CGCG RNA]
binding result (HsASCC1 WT [1]): binds | binding result (HsASCC1 GDDG mutant): no binding

TTTTCGCGTTTT (ssDNA) [CGCG DNA]
binding result (HsASCC1 WT [2]): no binding
